This test has as its target FOXO4 forkhead domain (FHD; 95–195 a.a.) (human, UniProt P98177 95-195). Description: NMR paramagnetic relaxation enhancement.

Ends that are not written are not given here. * marks the point of attachment. MTSL = spin label from S-(1-oxyl-2,2,5,5-tetramethyl-2,5-dihydro-1H-pyrrol-3-yl)methyl methanesulfonothioate, attached to the cysteine side chain, CC1(C)C=C(CS*)C(C)(C)N1[O]

FOXO4 forkhead domain (FHD; 95–195 a.a.), sequence (P98177 95-195): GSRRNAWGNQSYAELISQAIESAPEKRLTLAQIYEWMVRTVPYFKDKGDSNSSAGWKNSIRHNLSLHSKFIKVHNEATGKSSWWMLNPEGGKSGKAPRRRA

For the molecule DLDLDMYMENLEC(MTSL)DMDNIISDLMDEGEGLDFNFEPDP (domain or fragment, human, UniProt P98177 469-505, looked up) [FOXO4 conserved region 3 (CR3; 469–505 a.a.), MTSL-labelled at C481], the binding result was “binds”.

The record behind these values is paper PMC11530643 (Communications Biology, 2024).
